Results published in US20240247077A1 (CLEMSON UNIVERSITY RESEARCH FOUNDATION, published 2024).

Assays:
mouse CYP1A = target: T1, mouse CYP1A (mouse (M. musculus), UniProt P00184 1-524); assay: IHC, liver of PCB-126 treated mouse
T1 construct: Endogenous protein in Hepa1c1c7 cell lysate (immunoblot) and fixed liver (IHC); also called HEPA1C1C7; mouse hepatoma cell line CYP1A
T1 sequence (looked up): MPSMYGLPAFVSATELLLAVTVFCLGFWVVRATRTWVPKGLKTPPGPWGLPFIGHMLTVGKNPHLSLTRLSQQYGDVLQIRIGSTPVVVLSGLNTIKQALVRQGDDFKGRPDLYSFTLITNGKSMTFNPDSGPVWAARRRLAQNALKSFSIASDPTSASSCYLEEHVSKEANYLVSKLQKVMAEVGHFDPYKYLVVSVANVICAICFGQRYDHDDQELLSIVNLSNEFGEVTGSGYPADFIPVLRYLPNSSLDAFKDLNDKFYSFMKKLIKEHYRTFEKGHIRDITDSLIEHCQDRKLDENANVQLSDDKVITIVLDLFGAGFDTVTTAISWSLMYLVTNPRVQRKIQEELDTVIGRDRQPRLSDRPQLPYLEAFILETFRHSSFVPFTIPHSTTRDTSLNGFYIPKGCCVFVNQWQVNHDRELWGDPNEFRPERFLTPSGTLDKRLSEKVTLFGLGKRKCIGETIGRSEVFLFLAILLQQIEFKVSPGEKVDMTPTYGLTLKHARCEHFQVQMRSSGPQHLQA
Procedure: Subsequently, slides were immersed in pH 9 Tris-EDTA buffer while heating by microwave on 100% power for 5 min followed by cooling for 5 min, followed by a final 5 min 100% power, then a final 20 min cool-down period in the container at room temperature. After antigen retrieval, tissues on slides were encircled with a Liquid Blocker Super mini pen to isolate tissue slices. Thus, each slide was divided into sections where one section can act as a reagent control by withholding a primary antibody. Additional screening assays included isotype controls. Once slides were divided, all sections were treated to quench endogenous peroxidase activity for 30 min using 3% H₂O₂ in water. […] After blocking, avidin-then biotin-blocking steps (15 min each) were conducted to allow specificity to target molecules only for the avidin-biotin binding. Next, the antibody, as a hybridoma supernatant diluted 1:10 in PBS with 0.5% FBS, was added dropwise to the slides and incubated overnight at 4° C. or for 2 h at RT. After incubation, the slides were washed prior to addition of the secondary (biotinylated) antibody for a 30 min incubation at RT. After washing, Vectastain ABC reagent was added for 30 min prior to staining.

rat CYP1A = target: T2, rat CYP1A (rat (R. norvegicus), UniProt P00185 2-524); assay: immunoblot, rat liver S9 fractions
T2 construct: Endogenous protein in liver S9 fraction, immunoblot; also called Rat liver S9 fraction, Arochlor-1254-induced
T2 sequence (looked up): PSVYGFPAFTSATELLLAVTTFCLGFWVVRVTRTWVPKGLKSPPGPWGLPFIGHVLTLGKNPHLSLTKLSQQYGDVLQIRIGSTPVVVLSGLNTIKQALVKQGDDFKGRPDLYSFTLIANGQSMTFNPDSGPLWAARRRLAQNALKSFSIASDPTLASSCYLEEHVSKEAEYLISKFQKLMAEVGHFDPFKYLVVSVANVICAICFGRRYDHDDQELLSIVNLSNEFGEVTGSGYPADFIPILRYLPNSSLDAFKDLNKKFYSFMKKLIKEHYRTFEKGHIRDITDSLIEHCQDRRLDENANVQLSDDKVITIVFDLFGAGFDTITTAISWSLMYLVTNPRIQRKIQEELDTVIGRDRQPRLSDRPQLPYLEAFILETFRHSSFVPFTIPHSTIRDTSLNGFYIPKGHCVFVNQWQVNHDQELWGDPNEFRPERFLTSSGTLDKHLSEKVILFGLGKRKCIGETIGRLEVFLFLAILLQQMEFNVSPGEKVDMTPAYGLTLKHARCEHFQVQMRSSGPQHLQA
Procedure: Lysate protein concentration for each cell line, rat S9 fractions, and rainbow trout microsomes were matched between treated and controls, then boiled in reducing sample buffer for 7 min. Forty micrograms of each sample was then subjected to SDS-PAGE using 10-lane, 50 μL well capacity 4-20% pre-cast gels (Biorad, Richmond, CA, USA) and immunoblotting using standard procedures incorporating PDVF membranes. Immunoblots were blocked overnight with 10% horse serum (Gibco) in 0.01 M phosphate buffered saline (PBS) containing 0.05% tween twenty (PBS-T). Membranes were washed once for 10 min with PBS-T, then probed for 2 h at room temperature (RT) with mAbs as confluent supernatants diluted 1:10 in PBS-T containing a final nominal concentration of 3 ug/mL antibody. […] After 3×washes with PBS-T, membranes were incubated with NBT-BCIP (Fisher Scientific, Pittsburgh, PA, USA) as the AP substrate and activity was visualized as dark blue banding of CYP1A at the expected size of approximately 55 kDa.

[1] = target: T3, recombinant human CYP1A1 expressed in HEK cells (human (H. sapiens), UniProt P04798 1-512); assay: immunoblot, HEK cell lysate with recombinant human CYP1A1
T3 construct: Bought over-expression lysate; also called OriGene LC400170
T3 sequence (looked up): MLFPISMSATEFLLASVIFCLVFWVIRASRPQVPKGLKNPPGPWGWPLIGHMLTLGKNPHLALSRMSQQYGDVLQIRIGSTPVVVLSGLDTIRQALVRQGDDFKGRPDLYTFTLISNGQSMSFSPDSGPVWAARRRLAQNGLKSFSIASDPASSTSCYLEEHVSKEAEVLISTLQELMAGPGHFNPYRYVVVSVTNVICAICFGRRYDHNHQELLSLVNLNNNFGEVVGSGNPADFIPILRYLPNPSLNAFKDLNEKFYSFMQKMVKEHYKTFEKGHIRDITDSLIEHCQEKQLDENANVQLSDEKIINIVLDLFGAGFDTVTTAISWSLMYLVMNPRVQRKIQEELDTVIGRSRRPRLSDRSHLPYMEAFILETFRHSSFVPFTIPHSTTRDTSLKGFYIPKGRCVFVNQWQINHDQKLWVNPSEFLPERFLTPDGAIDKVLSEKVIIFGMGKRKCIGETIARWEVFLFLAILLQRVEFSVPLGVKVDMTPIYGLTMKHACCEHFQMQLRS
Procedure: HEK cells were grown in media only as a cell-specific source of control cell lysate for comparison with over-expressed recombinant CYP1A1 in HEK cell lysates from the supplier.
Media was then removed from cells, replaced with 0.25% trypsin, and incubated until cells lifted from attachment. Cells were then pelleted by centrifugation to obtain a dry pellet, covered with ice-cold 300-400 μL RIPA buffer (Thermo Fisher, Waltham, MA, USA) supplemented with 2×HALT protease inhibitor cocktail (Pierce), followed by resuspension using a vortex device and placement on ice for 20 min. Suspensions were then sonicated, transferred to 1.5 mL tubes, and centrifuged 12,000×g for 20 min. Overlying supernatants were removed and transferred to clean tubes and the protein content quantified. Lysate protein concentration for each cell line, rat S9 fractions, and rainbow trout microsomes were matched between treated and controls, then boiled in reducing sample buffer for 7 min. Forty micrograms of each sample was then subjected to SDS-PAGE using 10-lane, 50 μL well capacity 4-20% pre-cast gels (Biorad, Richmond, CA, USA) and immunoblotting using standard procedures incorporating PDVF membranes. Immunoblots were blocked overnight with 10% horse serum (Gibco) in 0.01 M phosphate buffered saline (PBS) containing 0.05% tween twenty (PBS-T). […]

binding result (mouse CYP1A): binds | binding result (rat CYP1A): binds | binding result [1]: binds
B1: mAb CRC4 (antibody, mouse IgG1, kappa, V domains shown)
VH: QVTLKESGPGILQPSQTLSLTCSFSGFSLSTSGMGVNWIRKPSGKGLEWLAHIFWDDDKRYNPSLKSRLTISKDTSRNQVFLMITSVDTADTATYYCASLAMDYWGQGTSVTVSS
VL: DIVMTQGASSVTVTPGESVSISCRSSKSLLHSNGRTFLYWFLQRPGQSPQLLIYRMSNLASGVPDRVSGSGSGTAFTLRISRVEAEDVGVYYCMQHLEYPFTFGGGTRLELKR
notes: Mouse IgG1 kappa from a hybridoma, used as confluent hybridoma supernatant (nominally 3 ug/mL after 1:10 dilution); also called monoclonal antibody CRC4; CRC4_1
